Measured values reported in patent US20260265340A1 (CUROGEN TECHNOLOGY, published 2026).

Molecular target: T1, human TNFα (human, UniProt P01375 77-233)
T1 construct: also called hTNFα
Assay: ELISA, cytokine coated on the plate; the text value differs from the table cell 43.8
Experimental: The wells were then blocked with ELISA TBS buffer containing 5% BSA at 100 μl/well and incubated at room temperature for 1 hour, followed by three washes with ELISA TBS buffer (200 μl/well). […] After three washes with ELISA TBS buffer (200 μl/well), HRP-conjugated secondary antibody (Abcam, Cat. Ab98624) was applied and incubated at room temperature for 1 hour.

T1 sequence (P01375 77-233 limits assumed): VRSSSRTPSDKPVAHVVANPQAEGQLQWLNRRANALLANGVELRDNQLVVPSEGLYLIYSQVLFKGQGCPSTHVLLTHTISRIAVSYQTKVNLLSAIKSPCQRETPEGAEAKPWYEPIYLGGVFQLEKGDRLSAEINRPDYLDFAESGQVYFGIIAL

B1: IL-17RA/RC-Fc-TNFR2 fusion protein T1-T4-14 (Fc fusion)
chain: LRLLDHRAPVCSQPGLNCTVKNSDCLDDSWIHPRNLTPSSPKDLQIQLHFAHTQQGDLVPVAHIEWTLQTDASILYLEGAELSVLQLDTNERLCVRFEFLSKLRHHHRRWRFTFSHFVVDPGQEYEVTVHHLPKPIPDGDPNHQSKNFLVPDCEHPRMKVTTPCMSSALPWLNVSADGDNVHLVLNVSEEQHFGLSLYWNQVQGPPKPRWHKNLTGPQIITLNHTDLVPCLCIQVWPLEPDSVRTNICPFREDPRAHQNLWQAARLRLLTLQSWLLDAPCSLPAEAALCWRAPGGDPCQPLVPPLSWENVTVDKVLEFPLLKGHPNLCVQVNSSEKLQLQECLWADSLGPLKDDVLLLETRGPQDNRSLCALEPSGCTSLPSKASTRAARLGEYLLQDLQSGQCLQLWDDDLGALWACPMDKYIHKTGIEGRMDRNTGRGGEEKKKEKEKEEQEERETKTPECPSHTQPLGVFLFPPKPKDTLMISRTPEVTCVVVDVSQEDPEVQFNWYVDGVEVHNAKTKPREEQFNSTYRVVSVLTVLHQDWLNGKEYKCKVSNKGLPSSIEKTISKAKGQPREPQVYTLPPSQEEMTKNQVSLTCLVKGFYPSDIAVEWESNGQPENNYKTTPPVLDSDGSFFLYSRLTVDKSRWQEGNVFSCSVMHEALHNHYTQKSLSLSLGKGGGGSGGGGSGGGGSLELPAQVAFTPYAPEPGSTCRLREYYDQTAQMCCAKCPPGQHAKVFCTKTSDTVCDSCEDSTYTQLWNWVPECLSCSSRCSSDQVETQACTREQNRICTCRPGWYCALSKQEGCRLCAPLSKCRPGFGVARPGTETSDVVCKPCAPGTFSNTTSSTDICRPHQICSVVAIPGNASMDAVCTSTSPTRSMAPGAVHLPQPVSTRSQHTQPTPGPSTAPSTSILLPMGPSPPAEGSTGD
notes: Structure T1c-Fc-T4g; also called T1c-Fc-T4g; IL-17RA/RC-Fc-TNFR2 (T1-T4-14)
EC50: 0.0431 µg/mL
